Numbering of substitutions follows the chain as printed. In names and notes the source's numbering stands.
T1: TGR5 wt fused to GFP or mCherry (TGR5 wt-GFP and TGR5 wt-mCherry), Q8TDU6
T1 chain: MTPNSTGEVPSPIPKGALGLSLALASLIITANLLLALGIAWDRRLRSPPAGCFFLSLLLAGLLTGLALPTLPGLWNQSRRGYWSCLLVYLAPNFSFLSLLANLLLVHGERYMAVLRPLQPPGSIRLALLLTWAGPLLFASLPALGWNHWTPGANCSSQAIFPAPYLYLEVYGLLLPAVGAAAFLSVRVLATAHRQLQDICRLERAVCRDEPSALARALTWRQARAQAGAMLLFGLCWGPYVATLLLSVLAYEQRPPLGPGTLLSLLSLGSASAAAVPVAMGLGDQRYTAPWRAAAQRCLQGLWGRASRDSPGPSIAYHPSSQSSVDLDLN

B1: TGR5 wt fused to GFP or mCherry (TGR5 wt-GFP and TGR5 wt-mCherry), Q8TDU6 1-330 (receptor)
chain: T1 chain
B2: TGR5 Y111F fused to GFP or mCherry (receptor, UniProt Q8TDU6 1-330, looked up)
chain: T1 chain with Y111F
notes: TGR5 (GPBAR-1, M-BAR) with Y111F in the ERY motif; Two differently tagged copies (GFP donor, mCherry acceptor), co-expressed; Each copy carries only one fluorescent protein; also called Y111F variant; source: HEK293, transiently transfected, in live cells; not shown: GFP, C-terminal, kept; mCherry, C-terminal, kept
B3: TGR5 Y111A fused to GFP or mCherry (receptor, UniProt Q8TDU6 1-330, looked up)
chain: T1 chain with Y111A
notes: TGR5 (GPBAR-1, M-BAR) with Y111A in the ERY motif; Two differently tagged copies (GFP donor, mCherry acceptor), co-expressed; Each copy carries only one fluorescent protein; also called Y111A variant; source: HEK293, transiently transfected, in live cells; not shown: GFP, C-terminal, kept; mCherry, C-terminal, kept

Legend:
[1] = target: T1, TGR5 wt fused to GFP or mCherry (TGR5 …); experiment: FRET or BRET; MFIS-FRET in live HEK293 cells; GFP (donor) and mCherry (acceptor) on the C-terminus of TGR5; acceptor titration up to donor:acceptor 1:40; total TGR5 0.5-13 uM; also before and after 10 uM taurocholate (no change); KD2 is of the step tetramer to dimers, modelled by a dimer/tetramer simulation of E_mean against the donor-acceptor ratio with KD1 of the dimer fixed to 10 nM; conditions: remark: other sources report otherwise
[2] = target: the molecule itself; experiment: as above

Row | Binder | KD2 (tetramer to dimers, modeled) [1] | stoichiometry N [1] | stoichiometry N [2]
1 | B1 | 70 nM | 4 | –
2 | B2 | – | – | 4
3 | B3 | – | – | 2

Source: paper PMC5105069, “Structural assemblies of the di- and oligomeric G-protein coupled receptor TGR5 in live cells: an MFIS-FRET and integrative modelling study” (Scientific Reports, 2016)
